Results taken from the supplement of paper PMC10567573.

B1: TOR1AIP2 (parent)
chain: YTSSQKVSPIQIDGAGRTWQDSDT
B2: ISL2 (parent)
chain: HYPFLGAMGDHSKKKPGTAMCVGC

Variants of: B1
Experiment: protein stability index of a GFP-peptide fusion (GPS, HEK-293T) (PSI 1-6); higher = more stable
Details: c terminus: a fixed tail appended
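Further: lentivirally expressed fusions sorted by FACS into six bins by GFP to DsRed ratio, PSI derived from sequencing read proportions per bin multiplied by bin number.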

Variant | protein stability index
YTSSQKVSPIQIDGAGRTWQDSHT | 2.16
YTSSQKVSPIQIDGAGRTWQDSTT | 2.17
YTSSQKVSPIQIDGAGRTWQDSFT | 2.04
YTSSQKVSPIQIDGAGRTWQDSAT | 3.06
YTSSQKVSPIQIDGAGRTWQDSCT | 2.83
YTSSQKVSPIQIDGAGRTWQDSRT | 2.48
YTSSQKVSPIQIDGAGRTWQDSGT | 2.72
YTSSQKVSPIQIDGAGRTWQDSMT | 2.06
YTSSQKVSPIQIDGAGRTWQDSYT | 2.81
YTSSQKVSPIQIDGAGRTWQDSNT | 3.41
YTSSQKVSPIQIDGAGRTWQDSWT | 1.55
YTSSQKVSPIQIDGAGRTWQDSST | 2.73
YTSSQKVSPIQIDGAGRTWQDSKT | 2.55
YTSSQKVSPIQIDGAGRTWQDSPT | 2.64
YTSSQKVSPIQIDGAGRTWQDSQT | 3.41
YTSSQKVSPIQIDGAGRTWQDSIT | 1.44
YTSSQKVSPIQIDGAGRTWQPSDT | 2.81
YTSSQKVSPIQIDGAGRTWQCSDT | 2.85
YTSSQKVSPIQIDGAGRTWQFSDT | 2.33
YTSSQKVSPIQIDGAGRTWQKSDT | 3.46
YTSSQKVSPIQIDGAGRTWQMSDT | 2.36
YTSSQKVSPIQIDGAGRTWQQSDT | 2.45
YTSSQKVSPIQIDGAGRTWQHSDT | 2.34
YTSSQKVSPIQIDGAGRTWQYSDT | 2.43

Variant | protein stability index
YTSSQKVSPIQIDGAGRTWQSSDT | 2.95
YTSSQKVSPIQIDGAGRTWQVSDT | 2.39
YTSSQKVSPIQIDGAGRTWQLSDT | 2.46
YTSSQKVSPIQIDGAGRTWQRSDT | 2.6
YTSSQKVSPIQIDGAGRTWQESDT | 3.27
YTSSQKVSPIQIDGAGRTWQNSDT | 3.29
YTSSQKVSPIQIDGAGRTWQGSDT | 2.62
YTSSQKVSPIQIDGAGRTWQISDT | 2.71
YTSSQKVSPIQIDGAGRTWQASDT | 2.73
YTSSQKVSPIQIDGAGRTWQTSDT | 2.62
YTSSQKVSPIQIDGAGRTWVDSDT | 3.54
YTSSQKVSPIQIDGAGRTWWDSDT | 2.01
YTSSQKVSPIQIDGAGRTWYDSDT | 2.84
YTSSQKVSPIQIDGAGRTWQDFDT | 2.71
YTSSQKVSPIQIDGAGRTWQDIDT | 3.12
YTSSQKVSPIQIDGAGRTWQDMDT | 2.18
YTSSQKVSPIQIDGAGRTWQDDDT | 4.55
YTSSQKVSPIQIDGAGRTWQDKDT | 2.95
YTSSQKVSPIQIDGAGRTWQDEDT | 4.08
YTSSQKVSPIQIDGAGRTWQDCDT | 3.18
YTSSQKVSPIQIDGAGRTWQDWDT | 2.85
YTSSQKVSPIQIDGAGRTWQDPDT | 3.67
YTSSQKVSPIQIDGAGRTWQDYDT | 2.51
YTSSQKVSPIQIDGAGRTWQDVDT | 3.17

Variant | protein stability index
YTSSQKVSPIQIDGAGRTWQDLDT | 2.35
YTSSQKVSPIQIDGAGRTWQDHDT | 3.06
YTSSQKVSPIQIDGAGRTWQDQDT | 3.64
YTSSQKVSPIQIDGAGRTWQDTDT | 3.63
YTSSQKVSPIQIDGAGRTWQDADT | 4.18
YTSSQKVSPIQIDGAGRTWQDRDT | 3.29
YTSSQKVSPIQIDGAGRTWQDNDT | 3.55
YTSSQKVSPIQIDGAGRTWQDGDT | 2.74
YTSSQKVSPIQIDGAGRTWQDSDA | 3.08
YTSSQKVSPIQIDGAGRTWQDSDC | 3.52
YTSSQKVSPIQIDGAGRTWQDSDQ | 2.63
YTSSQKVSPIQIDGAGRTWQDSDN | 3.15
YTSSQKVSPIQIDGAGRTWQDSDM | 2.58
YTSSQKVSPIQIDGAGRTWQDSDR | 2.95
YTSSQKVSPIQIDGAGRTWQDSDD | 4.12
YTSSQKVSPIQIDGAGRTWQDSDW | 2.87
YTSSQKVSPIQIDGAGRTWQDSDH | 3.51
YTSSQKVSPIQIDGAGRTWQDSDK | 3.29
YTSSQKVSPIQIDGAGRTWQDSDV | 2.86
YTSSQKVSPIQIDGAGRTWQDSDP | 3.55
YTSSQKVSPIQIDGAGRTWQDSDY | 2.17
YTSSQKVSPIQIDGAGRTWQDSDE | 5
YTSSQKVSPIQIDGAGRTWQDSDS | 3.85

Variants of: B2
Experiment: as above
Details: c terminus: a fixed tail appended

Variant | protein stability index
HYPKLGAMGDHSKKKPGTAMCVGC | 2.92
HYPYLGAMGDHSKKKPGTAMCVGC | 2.21
HYPMLGAMGDHSKKKPGTAMCVGC | 3.48
HYPCLGAMGDHSKKKPGTAMCVGC | 3.27
HYPSLGAMGDHSKKKPGTAMCVGC | 3.48
HYPQLGAMGDHSKKKPGTAMCVGC | 3.58
HYPHLGAMGDHSKKKPGTAMCVGC | 3.73
HYPVLGAMGDHSKKKPGTAMCVGC | 3.3
HYPALGAMGDHSKKKPGTAMCVGC | 3.75
HYPLLGAMGDHSKKKPGTAMCVGC | 2.51
HYPWLGAMGDHSKKKPGTAMCVGC | 3.02
HYPILGAMGDHSKKKPGTAMCVGC | 3.03
HYPPLGAMGDHSKKKPGTAMCVGC | 3.34
HYPTLGAMGDHSKKKPGTAMCVGC | 3.19
HYPNLGAMGDHSKKKPGTAMCVGC | 3.38
HYPRLGAMGDHSKKKPGTAMCVGC | 2.89
HYPDLGAMGDHSKKKPGTAMCVGC | 3.83
HYPELGAMGDHSKKKPGTAMCVGC | 4.72
HYPGLGAMGDHSKKKPGTAMCVGC | 3.25
WYPFLGAMGDHSKKKPGTAMCVGC | 2.59
KYPFLGAMGDHSKKKPGTAMCVGC | 2.62
VYPFLGAMGDHSKKKPGTAMCVGC | 2.11
DYPFLGAMGDHSKKKPGTAMCVGC | 3.15
